In assay [1] the target is human Jagged1 ECD-His (Met1-Ser1046) (human, UniProt P78504). The assay is described as follows: BLI. (BLI is a label-free optical method that tracks binding on a fibre tip over time.)
The next assay deals with T1, murine DLL4-His (mouse, UniProt Q9JI71).
T1 chain: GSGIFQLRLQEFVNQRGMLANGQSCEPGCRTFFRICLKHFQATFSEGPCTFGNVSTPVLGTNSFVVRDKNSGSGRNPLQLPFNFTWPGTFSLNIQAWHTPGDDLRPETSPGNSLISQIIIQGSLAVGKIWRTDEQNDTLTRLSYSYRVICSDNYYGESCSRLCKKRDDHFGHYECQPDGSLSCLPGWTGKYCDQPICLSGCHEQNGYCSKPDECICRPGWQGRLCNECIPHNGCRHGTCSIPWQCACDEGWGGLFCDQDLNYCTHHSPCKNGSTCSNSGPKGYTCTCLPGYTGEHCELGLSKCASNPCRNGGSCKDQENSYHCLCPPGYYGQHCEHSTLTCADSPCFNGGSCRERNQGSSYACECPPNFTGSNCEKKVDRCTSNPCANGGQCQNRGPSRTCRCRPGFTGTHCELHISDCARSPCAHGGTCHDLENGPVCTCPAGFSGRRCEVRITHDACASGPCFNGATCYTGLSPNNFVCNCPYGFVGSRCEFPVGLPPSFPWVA
The assay is described as follows: ELISA. (In general: An ELISA detects its analyte on a solid surface through an enzyme-linked reagent.)

A further assay concerns the target human Jagged2-Fc (human, UniProt Q9Y219). The assay is described as follows: ELISA.
In a further assay the target is human Jagged1-Fc (human, UniProt P78504). The assay is described as follows: ELISA.
Assay [2] addresses T2, murine Jagged1 on 293T cells (mouse, UniProt Q9QXX0).
T2 chain: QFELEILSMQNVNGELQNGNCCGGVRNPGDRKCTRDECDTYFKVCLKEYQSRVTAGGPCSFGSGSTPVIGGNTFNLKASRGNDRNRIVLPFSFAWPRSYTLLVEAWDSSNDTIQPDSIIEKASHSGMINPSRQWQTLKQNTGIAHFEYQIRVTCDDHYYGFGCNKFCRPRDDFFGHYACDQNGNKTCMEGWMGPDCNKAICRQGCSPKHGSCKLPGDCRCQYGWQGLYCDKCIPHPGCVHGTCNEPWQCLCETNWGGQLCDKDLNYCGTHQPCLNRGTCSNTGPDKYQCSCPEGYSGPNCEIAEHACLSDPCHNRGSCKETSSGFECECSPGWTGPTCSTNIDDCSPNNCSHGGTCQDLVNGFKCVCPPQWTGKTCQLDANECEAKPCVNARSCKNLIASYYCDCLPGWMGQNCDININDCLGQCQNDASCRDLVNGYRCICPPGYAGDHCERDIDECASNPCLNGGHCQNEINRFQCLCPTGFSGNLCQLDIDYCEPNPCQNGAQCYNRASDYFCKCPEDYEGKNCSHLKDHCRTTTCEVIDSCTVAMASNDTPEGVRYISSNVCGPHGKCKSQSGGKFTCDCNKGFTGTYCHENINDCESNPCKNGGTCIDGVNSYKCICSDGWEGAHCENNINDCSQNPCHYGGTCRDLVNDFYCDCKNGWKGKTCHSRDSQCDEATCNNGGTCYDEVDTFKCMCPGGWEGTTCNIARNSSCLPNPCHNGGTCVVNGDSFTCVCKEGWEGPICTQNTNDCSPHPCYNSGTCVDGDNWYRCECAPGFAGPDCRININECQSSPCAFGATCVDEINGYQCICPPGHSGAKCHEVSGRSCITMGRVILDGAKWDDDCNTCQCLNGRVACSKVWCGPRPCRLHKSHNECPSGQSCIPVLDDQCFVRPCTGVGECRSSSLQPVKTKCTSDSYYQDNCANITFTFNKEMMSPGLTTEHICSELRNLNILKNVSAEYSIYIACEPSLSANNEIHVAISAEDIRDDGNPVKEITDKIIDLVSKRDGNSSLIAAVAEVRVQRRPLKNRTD
The experiment in a line: FACS.

In a further assay the target is murine Jagged2-Fc (mouse, UniProt Q9QYE5). The assay is described as follows: ELISA.
For assay [3], the target named is rat Jagged1 on 293T cells (rat, UniProt Q63722). The assay is described as follows: FACS. For orientation: In flow cytometry, cells or beads pass a laser one at a time.
The next assay has as its target human DLL4-His (human, UniProt Q9NR61). The experiment in a line: ELISA.
The target of assay [4] is T3, human Jagged1 on 293/293T cells (human, UniProt P78504). The assay is described as follows: FACS.
The target of a further assay is murine DLL1-His (mouse, UniProt Q61483). The assay is described as follows: ELISA.
Assay [5] addresses T3, human Jagged1 on 293/293T cells. The experiment in a line: KinExA, on-cell.
Another assay addresses rat Jagged1-Fc (rat, UniProt Q63722). The experiment in a line: ELISA.
In a further assay the target is human Jagged1-His (human, UniProt P78504). The experiment in a line: ELISA.

Chain of murine DLL1-His (Q61483 18-545): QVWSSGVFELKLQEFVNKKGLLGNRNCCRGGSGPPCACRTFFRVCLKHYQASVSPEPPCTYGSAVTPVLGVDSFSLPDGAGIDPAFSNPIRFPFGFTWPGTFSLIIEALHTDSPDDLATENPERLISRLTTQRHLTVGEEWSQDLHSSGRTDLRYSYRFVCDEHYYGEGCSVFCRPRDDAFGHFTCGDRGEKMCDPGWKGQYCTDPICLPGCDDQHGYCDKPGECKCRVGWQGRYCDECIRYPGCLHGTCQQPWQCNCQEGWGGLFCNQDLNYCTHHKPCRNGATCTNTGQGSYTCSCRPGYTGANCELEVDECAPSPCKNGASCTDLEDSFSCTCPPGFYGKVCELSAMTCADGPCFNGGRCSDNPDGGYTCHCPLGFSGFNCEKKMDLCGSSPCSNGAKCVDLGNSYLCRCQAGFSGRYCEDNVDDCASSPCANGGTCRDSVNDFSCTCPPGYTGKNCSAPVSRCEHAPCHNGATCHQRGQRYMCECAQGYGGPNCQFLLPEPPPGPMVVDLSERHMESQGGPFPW
Chain of human DLL4-His (Q9NR61 27-529): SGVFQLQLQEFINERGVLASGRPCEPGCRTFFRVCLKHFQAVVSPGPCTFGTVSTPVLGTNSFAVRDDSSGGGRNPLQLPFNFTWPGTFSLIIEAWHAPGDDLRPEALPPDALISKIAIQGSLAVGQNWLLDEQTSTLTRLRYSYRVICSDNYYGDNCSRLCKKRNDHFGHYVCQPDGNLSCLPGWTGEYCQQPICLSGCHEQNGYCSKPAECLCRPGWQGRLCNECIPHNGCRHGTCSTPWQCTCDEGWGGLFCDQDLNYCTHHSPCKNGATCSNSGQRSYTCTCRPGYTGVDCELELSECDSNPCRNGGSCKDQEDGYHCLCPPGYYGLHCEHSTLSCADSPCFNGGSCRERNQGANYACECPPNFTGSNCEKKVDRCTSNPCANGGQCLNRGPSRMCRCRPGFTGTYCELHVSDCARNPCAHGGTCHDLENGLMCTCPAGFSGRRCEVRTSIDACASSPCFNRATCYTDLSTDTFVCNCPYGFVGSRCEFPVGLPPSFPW
Chain of human Jagged1 ECD-His (Met1-Ser1046) (P78504 1-1046): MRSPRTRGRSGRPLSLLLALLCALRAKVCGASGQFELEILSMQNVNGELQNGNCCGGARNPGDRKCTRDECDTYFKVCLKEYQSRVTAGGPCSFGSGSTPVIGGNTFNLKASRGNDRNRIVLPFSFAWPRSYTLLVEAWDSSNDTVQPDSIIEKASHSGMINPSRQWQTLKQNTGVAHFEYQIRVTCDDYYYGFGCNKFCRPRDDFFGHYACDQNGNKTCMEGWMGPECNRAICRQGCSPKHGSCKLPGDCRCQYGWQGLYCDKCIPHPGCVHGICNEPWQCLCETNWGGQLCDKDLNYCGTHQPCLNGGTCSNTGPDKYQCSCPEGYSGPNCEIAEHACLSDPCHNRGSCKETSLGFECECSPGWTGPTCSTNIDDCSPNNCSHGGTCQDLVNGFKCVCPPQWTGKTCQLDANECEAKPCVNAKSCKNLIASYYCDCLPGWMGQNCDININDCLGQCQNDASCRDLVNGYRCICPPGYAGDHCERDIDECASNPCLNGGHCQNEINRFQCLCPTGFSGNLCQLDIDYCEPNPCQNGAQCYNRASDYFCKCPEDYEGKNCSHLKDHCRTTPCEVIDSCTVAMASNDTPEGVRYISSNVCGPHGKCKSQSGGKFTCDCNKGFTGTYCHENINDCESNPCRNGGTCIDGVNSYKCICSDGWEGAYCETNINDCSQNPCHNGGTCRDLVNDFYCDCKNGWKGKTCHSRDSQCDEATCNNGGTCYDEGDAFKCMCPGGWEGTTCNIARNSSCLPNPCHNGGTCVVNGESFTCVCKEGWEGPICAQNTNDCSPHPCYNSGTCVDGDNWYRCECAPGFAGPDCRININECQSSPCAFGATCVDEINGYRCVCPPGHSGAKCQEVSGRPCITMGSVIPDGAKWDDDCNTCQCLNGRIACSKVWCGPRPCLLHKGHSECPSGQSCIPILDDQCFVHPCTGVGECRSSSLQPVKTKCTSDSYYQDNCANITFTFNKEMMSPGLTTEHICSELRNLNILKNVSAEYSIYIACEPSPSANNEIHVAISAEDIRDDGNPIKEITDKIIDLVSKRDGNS
Chain of murine Jagged2-Fc (Q9QYE5 24-1082): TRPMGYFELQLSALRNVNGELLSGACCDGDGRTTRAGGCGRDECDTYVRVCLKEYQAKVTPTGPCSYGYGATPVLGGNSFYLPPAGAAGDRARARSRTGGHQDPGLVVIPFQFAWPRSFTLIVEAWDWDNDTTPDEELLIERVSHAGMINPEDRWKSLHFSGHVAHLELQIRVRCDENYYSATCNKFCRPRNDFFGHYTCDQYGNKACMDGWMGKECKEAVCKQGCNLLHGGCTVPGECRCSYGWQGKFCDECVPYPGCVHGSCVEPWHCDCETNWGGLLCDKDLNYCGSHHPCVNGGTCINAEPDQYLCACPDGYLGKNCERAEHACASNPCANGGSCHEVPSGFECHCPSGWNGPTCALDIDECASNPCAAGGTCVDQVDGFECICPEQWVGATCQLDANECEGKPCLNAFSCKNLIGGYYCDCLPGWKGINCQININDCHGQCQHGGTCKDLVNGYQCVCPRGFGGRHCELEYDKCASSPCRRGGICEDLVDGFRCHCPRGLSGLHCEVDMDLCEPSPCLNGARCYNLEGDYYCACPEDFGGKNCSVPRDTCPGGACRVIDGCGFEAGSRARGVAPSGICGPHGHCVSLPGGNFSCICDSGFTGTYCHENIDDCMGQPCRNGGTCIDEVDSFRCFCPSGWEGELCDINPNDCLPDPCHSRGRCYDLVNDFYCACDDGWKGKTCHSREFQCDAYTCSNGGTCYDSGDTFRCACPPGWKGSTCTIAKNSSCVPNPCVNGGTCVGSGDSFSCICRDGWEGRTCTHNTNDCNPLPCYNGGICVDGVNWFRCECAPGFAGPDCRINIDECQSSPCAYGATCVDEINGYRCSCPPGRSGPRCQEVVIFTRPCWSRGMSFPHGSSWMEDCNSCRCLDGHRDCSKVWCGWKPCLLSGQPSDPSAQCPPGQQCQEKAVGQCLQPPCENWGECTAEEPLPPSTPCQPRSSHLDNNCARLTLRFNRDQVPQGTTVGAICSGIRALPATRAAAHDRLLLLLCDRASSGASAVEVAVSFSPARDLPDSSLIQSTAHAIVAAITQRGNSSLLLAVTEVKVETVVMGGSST
Chain of human Jagged2-Fc (Q9Y219 24-1080): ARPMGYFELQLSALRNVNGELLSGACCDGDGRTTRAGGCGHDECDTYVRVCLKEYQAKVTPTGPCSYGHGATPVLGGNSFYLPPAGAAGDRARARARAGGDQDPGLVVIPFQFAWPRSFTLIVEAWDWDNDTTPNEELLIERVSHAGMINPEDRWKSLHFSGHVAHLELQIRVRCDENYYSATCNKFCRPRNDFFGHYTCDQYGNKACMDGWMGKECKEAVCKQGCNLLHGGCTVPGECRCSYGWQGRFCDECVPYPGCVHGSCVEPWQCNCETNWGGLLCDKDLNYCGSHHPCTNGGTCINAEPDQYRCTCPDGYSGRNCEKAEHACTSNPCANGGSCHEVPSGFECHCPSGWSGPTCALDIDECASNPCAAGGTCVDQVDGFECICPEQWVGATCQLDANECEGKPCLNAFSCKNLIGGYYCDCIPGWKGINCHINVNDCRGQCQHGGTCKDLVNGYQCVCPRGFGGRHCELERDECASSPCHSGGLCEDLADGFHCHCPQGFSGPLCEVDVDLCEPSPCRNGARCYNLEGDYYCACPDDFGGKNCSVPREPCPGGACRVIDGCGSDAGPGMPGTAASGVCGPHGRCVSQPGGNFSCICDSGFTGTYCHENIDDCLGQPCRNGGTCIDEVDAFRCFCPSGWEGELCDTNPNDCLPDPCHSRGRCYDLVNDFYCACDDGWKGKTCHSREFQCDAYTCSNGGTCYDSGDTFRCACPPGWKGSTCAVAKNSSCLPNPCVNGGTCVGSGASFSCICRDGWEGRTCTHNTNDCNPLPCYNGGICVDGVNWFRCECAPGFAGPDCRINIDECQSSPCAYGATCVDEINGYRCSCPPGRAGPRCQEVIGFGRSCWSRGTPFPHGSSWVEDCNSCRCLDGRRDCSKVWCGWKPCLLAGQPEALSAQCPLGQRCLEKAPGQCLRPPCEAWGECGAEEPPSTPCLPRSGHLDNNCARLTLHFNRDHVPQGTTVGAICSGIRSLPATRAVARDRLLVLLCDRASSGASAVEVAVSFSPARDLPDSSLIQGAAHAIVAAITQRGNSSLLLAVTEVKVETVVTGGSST

B1: 15D11.1 (antibody, V domains shown)
VH: QVTLKESGPVLVKPTETLTLTCTVSGFSLSNAEMGVSWIRQPPGKALEWLAHLFSNDEKSYSTSLKSRLTISKDTSKSQVVLTMTDLDPVDTATYYCARSFNWNYDFDYWGQGTLVTVSS
VL: QSALTQPASVSGSPGQSITISCTGTSSAVGGHNFVSWYQQYPGKAPKLMIYEVSNRPSGVSTRFSGSKSGNTASLTISGLQAEDEADYYCSSYTSSSTWVFGGGTRLTVL
With B1, the Kd (in general, the constant that tells how readily two partners part at equilibrium) in assay [1] stood at 0.614 nM; in [5] it was 0.125 nM. The binding result with murine DLL4-His, with human Jagged2-Fc, in the assay with murine Jagged2-Fc, in the assay with human DLL4-His and with murine DLL1-His was “no binding” in each case. For the same molecule, the EC50 (commonly the concentration at which the effect is half-maximal) with human Jagged1-Fc came to 0.8 nM; in assay [2] it was 0.36 nM; in [3] it was 0.25 nM; in [4], 0.29 nM; with rat Jagged1-Fc, 0.51 nM; with human Jagged1-His, 0.39 nM.

The values are drawn from patent US11028180.
